Read-outs that look alike come from different tables or passages of the source.
Legend:
Aβ1-20 = Aβ1-20 (Homo sapiens, UniProt P05067); experiment: Hydrolysis activity against Aβ1-20
Method: (§2) Further, any change in activity caused by addition of human serum albumin (HSA, Wako Pure Chemical Industries, Ltd., final concentration 0.025%) also was measured.
(§3) As substrates, Aβ42 in the form of soluble powder (authentic sample, Peptide Institute Inc.) and fragment peptides thereof, namely, Aβ1-20, Aβ11-29, and soluble Aβ28-42, were used. […] In the case of MS analysis, the MS analysis was performed after applying 20 μl of the reaction solution to HPLC and collecting an aliquot of the peak.
(§4) The present experiment examined activity against Aβ-Fs in Example 7.
(§5) As substrates, the same Aβ1-20 and Aβ11-29 as used in Example 7 were used.

Aβ11-29 = Aβ11-29 (Homo sapiens, UniProt P05067); experiment: Hydrolysis activity against Aβ11-29
Method: as §2, §3
As a substrate, Aβ11-29, which is a fragment peptide of Aβ42, was used. […] In the case of MS analysis, the MS analysis was performed after applying 20 μl of the reaction solution after the reaction for 6 days to HPLC and collecting an aliquot of the peak.
as §4
The reaction solution V shown in FIG. 52 was incubated at 37° C. for a predetermined time, and autodigestion of ANA-YA4 (YRMI) and cleavage of Aβ11-29 were examined.
A reaction solution VI shown in FIG. 52 was incubated at 37° C. for a predetermined time, and cleavage of Aβ1-20 and Aβ11-29 by ANA-SA5 was examined.
as §5
The present example examined autodigestion and activity against Aβ-F of JAL 12-17 (YKGSGF) and JAL 12-16 (YKGSG). […] As a substrate, the same Aβ11-29 as used in Example 7 was used. The autodigestion was examined by causing the reaction in the same manner, except that the substrate was not added.

[1] = Autodigestion of the catalytic peptide (HPLC, MS); type: biochemical
Method: First, to a buffer solution (Tris-HCl, pH 6.5, final concentration: 100 mmol/l), JAL (final concentration: 0.2 mmol/l) and the fragment peptide of hMMP7 (final concentration 0.05 mmol/l) were added. […] Thereafter, the reaction solution was subjected to HPLC, and the peaks of JAL and the fragment peptide of hMMP7 were examined. HPLC was performed under the following conditions.
Next, the mechanism of autodigestion was examined using various mutants of JAL as hydrolytic peptides. To a reaction solution containing each of the mutants of JAL, a protease inhibitor (trade name: Roche cOmplete, Roche) was added to cause a reaction. One tablet of the protease inhibitor was dissolved in 1 ml of Milli-Q water, and then, 50 μl of the resultant mixture was added to the reaction solution. […] As a result, the autodigestion of all the peptides subjected to the measurement was inhibited (FIG. 16).
Autodigestion in Box B was examined.
JAL-TA9 was reacted in the same manner except that a substrate was not added to examine the autodigestion of JAL-TA9.
The influence of an inhibitor on autodigestion of JAL-TA9 was examined. […] As the protease inhibitor, the serine protease inhibitor AEBSF, which inhibited the autodigestion of JAL 12-22 C19M in the item (6) in Example 4, was used.

PrP 175-189 = PrP 175-189 (Homo sapiens, UniProt P04156)
Aβ1-19 = Aβ1-19 (Homo sapiens, UniProt P05067); experiment: Hydrolysis activity against Aβ1-19; settings: 3 or 5 days
Method: The present experiment was conducted to consider an optimal concentration of a hydrolytic peptide relative to a substrate, using JAL 7-22 C19M as the hydrolytic peptide and Aβ1-19 as the substrate. The measurement of activity was performed in the same manner as in the above item (1), except that the incubation time was set to 0 days, 3 days, or 5 days.

SOD1 2-12 = SOD1 2-12 (Homo sapiens, UniProt P00441); experiment: Hydrolysis activity against SOD1 2-12; type: biochemical; settings: Example 3 (1); substrate SOD1 2-38 or SOD1 2-12
Excerpt: (§1) In JAL 1-22 C19M and JAL 7-22 C19M, Cys residues contained in JAL form S—S bonds during a reaction, and this makes fragment analysis difficult. On this account, JAL 1-22 and JAL 7-22 were modified so as to substitute Cys residues by Met.

SOD1 2-38 = SOD1 2-38 (Homo sapiens, UniProt P00441); experiment: Hydrolysis activity against SOD1 2-38; type: biochemical; settings: Example 3 (1); substrate SOD1 2-38 or SOD1 2-12
Chain of SOD1 2-38 (P00441 2-38 limits assumed): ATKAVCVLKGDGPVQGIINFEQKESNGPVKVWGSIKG
Method: As a control, physiological saline (0.9 w/v %) was used instead of the buffer solution. […] Also, it is considered that physiological saline is suitable for storage of JAL before use, for example.
Next, an experiment was conducted to consider an optimal pH for activity using JAL as the hydrolytic peptide and SOD1 2-38 as a substrate.
Metal ions to be added to a reaction solution were Zn^2+, Ca^2+, Co^2+, or combinations thereof. The concentrations of the metal ions in the respective reaction solutions were as follows: 10 mmol/l for Ca^2+; and 5 μmol/l for the other metal ions.
as §1

[2] = target: soluble Aβ1-42 (Aβ42 authentic sample) (Homo sapiens, UniProt P05067); experiment: Hydrolysis activity against soluble Aβ1-42 (authentic sample); settings: authentic sample Aβ42, reaction solution III
Method: as §3
Aβ42 was used as a substrate. […] In the case of MS analysis, the MS analysis was performed after applying 20 μl of the reaction solution after the reaction for 7 days to HPLC and collecting an aliquot of the peak.

Aβ28-42 = Aβ28-42 (Homo sapiens, UniProt P05067); experiment: Hydrolysis activity against Aβ28-42; type: biochemical; settings: reaction solution II; 1 day, 5 days
[3] = Example 14, peptide 0.2 mmol/l, PBS, HSA
[4] = reaction solution II, 1 day, 5 days

In the case of WIDPFEVSYQIGE [Box B Tob1 8-20], the “cleavage sites in Aβ-Fs (MS)” value (Aβ1-20; Example 14) is reported as “cleaved at a plurality of sites”, the “degradation of Aβ-Fs (HPLC)” value (Aβ1-20; [3]) is reported as “degraded Aβ-Fs” and the “cleavage sites in Aβ-Fs (MS)” value (Aβ11-29; Example 14) is reported as “cleaved at a plurality of sites”. The “degradation of Aβ-Fs (HPLC)” value (Aβ11-29; [3]) was “degraded Aβ-Fs” and the autodigestion ([1]; Example 6, HSA added, 5 days) was “fragments suggesting the occurrence of autodigestion were observed”.

For HSDCPSKGQAFRCIRI [BTG4 7-22], the “hydrolysis activity against PrP 175-189” value (PrP 175-189) was “exhibited activity”.

For YKGSG [JAL 12-16], the “degradation of Aβ-F (Aβ11-29)” value (Aβ11-29; Example 15, peptide 0.2 mmol/l, PBS, HSA) was “degraded Aβ-F” and the autodigestion ([1]; Example 15, substrate not added) was “digested themselves”.

For AKGSGFRMI, the “hydrolysis activity against Aβ11-29” value (Aβ11-29; Example 3 (6)) was “exhibited activity”.

For KYEGHWYPEKPYKGSGFRMIHI [JAL 1-22 C19M], the “hydrolysis activity against Aβ1-19” value (Aβ1-19; CH3OH or CH3CN 10%) was “did not exhibit activity”, the “hydrolysis activity against Aβ1-19” value (Aβ1-19; DMSO 10%) was “exhibited activity” and the “hydrolysis activity of JAL mutants” value (SOD1 2-12) was “exhibited hydrolysis activity”. For the same substance, the “hydrolysis activity of JAL mutants” value (SOD1 2-38) was “exhibited hydrolysis activity”.

In the case of EKPYKGSGFRMI, the “hydrolysis activity against Aβ11-29” value (Aβ11-29; Example 3 (6)) is reported as “exhibited activity”.

For YKGSGFRMIHA, the “hydrolysis activity against Aβ11-29” value (Aβ11-29; Example 3 (6)) was “exhibited activity”.

For YKGSGFRMI [JAL 12-20 C19M], the “hydrolysis activity against Aβ11-29” value (Aβ11-29; Example 3 (6)) was “exhibited activity”, the “hydrolysis activity against Aβ11-29” value (Aβ11-29; Example 4 (5)) was “strong activity” and the “autodigestion in presence of protease inhibitor” value ([1]; AEBSF, with Aβ11-29, 1 day) was “inhibited by AEBSF”.

For YPEKPSKGQAYRCIRV [BTG3 7-22], the “hydrolysis activity against PrP 175-189” value (PrP 175-189) was “exhibited activity” and the “hydrolysis activity against PrP 175-189” value (PrP 175-189; Cu2+ further added to HSA) was “exhibited activity”.

For AISSSMHSLYGLGLGS [Tob1 221-236], the “hydrolysis activity against Aβ11-29” value (Aβ11-29; Example 6 (3)) was “exhibited activity” and the autodigestion ([1]; Example 6, HSA added, 5 days) was “fragments suggesting autodigestion of Tob1 221-236 were observed”.

In the case of SKGQAYRMI [ANA-TA9], the “cleavage of Aβ-Fs” value (Aβ1-20; [4]) is reported as “could cleave all the Aβ-Fs”, the “cleavage of Aβ42” value [2] is reported as “could cleave Aβ42” and the “cleavage of Aβ-Fs” value (Aβ28-42) is reported as “could cleave all the Aβ-Fs”. For the same substance, the “cleavage of Aβ-Fs” value (Aβ11-29; [4]) was “could cleave all the Aβ-Fs”, the autodigestion ([1]; reaction solution I, 37° C.) was “autodigestion of ANA-TA9 was observed” and the “autodigestion in presence of protease inhibitor” value ([1]; reaction solution IV, 6 hours) was “inhibited by the protease inhibitor”.

For YKGAGFR, the “hydrolysis activity against Aβ1-20” value (Aβ1-20; Example 3 (2), (6)) was “exhibited activity”.

In the case of DSGFR, the “hydrolysis activity against Aβ1-20” value (Aβ1-20; Example 5 (1), JAL 14-18 and mutants) is reported as “strong activity”.

In the case of YKGSGFR [JAL (Tob1) 12-18], the “hydrolysis activity against Aβ1-20” value (Aβ1-20; Example 3 (2), (6)) is reported as “exhibited activity”.

From patent US10995119B2, “Peptide exhibiting hydrolytic activity and use thereof” (Okinawa Institute of Science and Technology School …, priority 2016, dated 2021)
